T1: TLT-1 18-188 relipidated in 20:80 PS:PC vesicles (human, UniProt Q86YW5 18-188)
T1 sequence: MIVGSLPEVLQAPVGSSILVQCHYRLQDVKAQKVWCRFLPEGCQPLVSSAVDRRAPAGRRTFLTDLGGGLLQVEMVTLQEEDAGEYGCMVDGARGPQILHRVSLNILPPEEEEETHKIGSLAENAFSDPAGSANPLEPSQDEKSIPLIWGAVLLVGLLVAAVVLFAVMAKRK

T2: TLT-1 receptor on the surface of activated human platelets (human, UniProt Q86YW5 16-311)
T2 sequence: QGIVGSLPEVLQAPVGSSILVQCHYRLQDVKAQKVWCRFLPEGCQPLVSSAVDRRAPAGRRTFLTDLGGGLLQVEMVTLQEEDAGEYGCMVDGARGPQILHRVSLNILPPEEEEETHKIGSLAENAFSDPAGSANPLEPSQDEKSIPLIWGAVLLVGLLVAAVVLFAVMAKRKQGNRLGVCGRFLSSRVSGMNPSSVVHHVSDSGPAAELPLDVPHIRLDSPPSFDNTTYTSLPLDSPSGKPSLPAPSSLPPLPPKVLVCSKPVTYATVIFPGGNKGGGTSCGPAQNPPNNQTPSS

B1: Fab 0052-LC-L4a-TF;VH-CH1-HPC4 (other)
light chain-linker-TF: DIQMTQTTSSLSASLGDRVTISCRASQDISNYLNWYQQKPDGTVKLLIFYTSRLHSGVPSRFSGSGSGTDYSLTISNLEPEDIATYYCQQDTKLPYTFGGGTKLEMKRTVAAPSVFIFPPSDEQLKSGTASVVCLLNNFYPREAKVQWKVDNALQSGNSQESVTEQDSKDSTYSLSSTLTLSKADYEKHKVYACEVTHQGLSSPVTKSFNRGECGSGGGGSGGGGSGGGGSSGTTNTVAAYNLTWKSTNFKTILEWEPKPVNQVYTVQISTKSGDWKSKCFYTTDTECDLTDEIVKDVKQTYLARVFSYPAGNVESTGSAGEPLYENSPEFTPYLETNLGQPTIQSFEQVGTKVNVTVEDERTLVRRNNTFLSLRDVFGKDLIYTLYYWKSSSSGKKTAKTNTNEFLIDVDKGENYCFSVQAVIPSRTVNRKSTDSPVECMGQEKGEFRE
VH-CH1-HPC4: QVQLQQSGAEPMKPGASVKISCKATGYTFSSHWIEWIKQRPGHGLEWIGEILPGSGNTNYNEKFKGKATFTADTSSNTAYMQLSSLTSEDSAVYCCARGYYGLNYDWYFDVWGAGTTVTVSSASTKGPSVFPLAPCSRSTSESTAALGCLVKDYFPEPVTVSWNSGALTSGVHTFPAVLQSSGLYSLSSVVTVPSSSLGTKTYTCNVDHKPSNTKVDKRVESKEDQVDPRLIDGK
B2: Fab 0023-VH-CH1-L4a-TF;LC-HPC4 (other)
VH-CH1-linker-TF: EVRLVESGGGLVQPGGSLKLSCATSGFTFSDYFMYWIRQTPEKRLEWVAYISNGGDSSSYPDTVKGRFTISRDNAKNTLYLQMSRLKSEDTAMYYCATNKNWDDYYDMDYWGQGTSVTVSSASTKGPSVFPLAPCSRSTSESTAALGCLVKDYFPEPVTVSWNSGALTSGVHTFPAVLQSSGLYSLSSVVTVPSSSLGTKTYTCNVDHKPSNTKVDKRVESKGSGGGGSGGGGSGGGGSSGTTNTVAAYNLTWKSTNFKTILEWEPKPVNQVYTVQISTKSGDWKSKCFYTTDTECDLTDEIVKDVKQTYLARVFSYPAGNVESTGSAGEPLYENSPEFTPYLETNLGQPTIQSFEQVGTKVNVTVEDERTLVRRNNTFLSLRDVFGKDLIYTLYYWKSSSSGKKTAKTNTNEFLIDVDKGENYCFSVQAVIPSRTVNRKSTDSPVECMGQEKGEFRE
light chain-HPC4: DIVVSQSPSSLAVSAGEKVTMSCKSSQSLLNSRTRKNYLAWYQQKPGQSPKLLIYWASTRESGVPDRFTGSGSGTDFTLTISSVQAEDLAVYYCKQSYNLLTFGAGTKLELKRTVAAPSVFIFPPSDEQLKSGTASVVCLLNNFYPREAKVQWKVDNALQSGNSQESVTEQDSKDSTYSLSSTLTLSKADYEKHKVYACEVTHQGLSSPVTKSFNRGECEDQVDPRLIDGK
B3: Fab 0023-LC-L6-TF;VH-CH1-HPC4 (other)
light chain-linker-TF: DIVVSQSPSSLAVSAGEKVTMSCKSSQSLLNSRTRKNYLAWYQQKPGQSPKLLIYWASTRESGVPDRFTGSGSGTDFTLTISSVQAEDLAVYYCKQSYNLLTFGAGTKLELKRTVAAPSVFIFPPSDEQLKSGTASVVCLLNNFYPREAKVQWKVDNALQSGNSQESVTEQDSKDSTYSLSSTLTLSKADYEKHKVYACEVTHQGLSSPVTKSFNRGECGGGGSGGGGSGSGGGGSGGGGSGGGGSSGTTNTVAAYNLTWKSTNFKTILEWEPKPVNQVYTVQISTKSGDWKSKCFYTTDTECDLTDEIVKDVKQTYLARVFSYPAGNVESTGSAGEPLYENSPEFTPYLETNLGQPTIQSFEQVGTKVNVTVEDERTLVRRNNTFLSLRDVFGKDLIYTLYYWKSSSSGKKTAKTNTNEFLIDVDKGENYCFSVQAVIPSRTVNRKSTDSPVECMGQEKGEFRE
VH-CH1-HPC4: EVRLVESGGGLVQPGGSLKLSCATSGFTFSDYFMYWIRQTPEKRLEWVAYISNGGDSSSYPDTVKGRFTISRDNAKNTLYLQMSRLKSEDTAMYYCATNKNWDDYYDMDYWGQGTSVTVSSASTKGPSVFPLAPCSRSTSESTAALGCLVKDYFPEPVTVSWNSGALTSGVHTFPAVLQSSGLYSLSSVVTVPSSSLGTKTYTCNVDHKPSNTKVDKRVESKEDQVDPRLIDGK
B4: Fab 0023-LC-L9-TF;VH-CH1-HPC4 (other)
light chain-linker-TF: DIVVSQSPSSLAVSAGEKVTMSCKSSQSLLNSRTRKNYLAWYQQKPGQSPKLLIYWASTRESGVPDRFTGSGSGTDFTLTISSVQAEDLAVYYCKQSYNLLTFGAGTKLELKRTVAAPSVFIFPPSDEQLKSGTASVVCLLNNFYPREAKVQWKVDNALQSGNSQESVTEQDSKDSTYSLSSTLTLSKADYEKHKVYACEVTHQGLSSPVTKSFNRGECGGGGSGGGGSGGGGSGGGGSGGGGSGSGGGGSGGGGSGGGGSSGTTNTVAAYNLTWKSTNFKTILEWEPKPVNQVYTVQISTKSGDWKSKCFYTTDTECDLTDEIVKDVKQTYLARVFSYPAGNVESTGSAGEPLYENSPEFTPYLETNLGQPTIQSFEQVGTKVNVTVEDERTLVRRNNTFLSLRDVFGKDLIYTLYYWKSSSSGKKTAKTNTNEFLIDVDKGENYCFSVQAVIPSRTVNRKSTDSPVECMGQEKGEFRE
VH-CH1-HPC4: B3 VH-CH1-HPC4
B5: Fab 0023-LC-L7-TF;VH-CH1-HPC4 (other)
light chain-linker-TF: DIVVSQSPSSLAVSAGEKVTMSCKSSQSLLNSRTRKNYLAWYQQKPGQSPKLLIYWASTRESGVPDRFTGSGSGTDFTLTISSVQAEDLAVYYCKQSYNLLTFGAGTKLELKRTVAAPSVFIFPPSDEQLKSGTASVVCLLNNFYPREAKVQWKVDNALQSGNSQESVTEQDSKDSTYSLSSTLTLSKADYEKHKVYACEVTHQGLSSPVTKSFNRGECGGGGSGGGGSGGGGSGSGGGGSGGGGSGGGGSSGTTNTVAAYNLTWKSTNFKTILEWEPKPVNQVYTVQISTKSGDWKSKCFYTTDTECDLTDEIVKDVKQTYLARVFSYPAGNVESTGSAGEPLYENSPEFTPYLETNLGQPTIQSFEQVGTKVNVTVEDERTLVRRNNTFLSLRDVFGKDLIYTLYYWKSSSSGKKTAKTNTNEFLIDVDKGENYCFSVQAVIPSRTVNRKSTDSPVECMGQEKGEFRE
VH-CH1-HPC4: B3 VH-CH1-HPC4
B6: Fab 0023-LC-L8-TF;VH-CH1-HPC4 (other)
light chain-linker-TF: DIVVSQSPSSLAVSAGEKVTMSCKSSQSLLNSRTRKNYLAWYQQKPGQSPKLLIYWASTRESGVPDRFTGSGSGTDFTLTISSVQAEDLAVYYCKQSYNLLTFGAGTKLELKRTVAAPSVFIFPPSDEQLKSGTASVVCLLNNFYPREAKVQWKVDNALQSGNSQESVTEQDSKDSTYSLSSTLTLSKADYEKHKVYACEVTHQGLSSPVTKSFNRGECGGGGSGGGGSGGGGSGGGGSGSGGGGSGGGGSGGGGSSGTTNTVAAYNLTWKSTNFKTILEWEPKPVNQVYTVQISTKSGDWKSKCFYTTDTECDLTDEIVKDVKQTYLARVFSYPAGNVESTGSAGEPLYENSPEFTPYLETNLGQPTIQSFEQVGTKVNVTVEDERTLVRRNNTFLSLRDVFGKDLIYTLYYWKSSSSGKKTAKTNTNEFLIDVDKGENYCFSVQAVIPSRTVNRKSTDSPVECMGQEKGEFRE
VH-CH1-HPC4: B3 VH-CH1-HPC4
B7: Fab 0051-VH-CH1-L4a-TF;LC-HPC4 (other)
VH-CH1-linker-TF: QVQLEQSGAELVRPGVSVKISCKGSGYTFTDYSMHWVKQSHAKSLEWIGVISTYYGDVRYNQKFKGKATMTVDKSSSTAYMALARLTSEDSAIYYCARAPMITTGAWFAYWGQGTLVTVSAASTKGPSVFPLAPCSRSTSESTAALGCLVKDYFPEPVTVSWNSGALTSGVHTFPAVLQSSGLYSLSSVVTVPSSSLGTKTYTCNVDHKPSNTKVDKRVESKGSGGGGSGGGGSGGGGSSGTTNTVAAYNLTWKSTNFKTILEWEPKPVNQVYTVQISTKSGDWKSKCFYTTDTECDLTDEIVKDVKQTYLARVFSYPAGNVESTGSAGEPLYENSPEFTPYLETNLGQPTIQSFEQVGTKVNVTVEDERTLVRRNNTFLSLRDVFGKDLIYTLYYWKSSSSGKKTAKTNTNEFLIDVDKGENYCFSVQAVIPSRTVNRKSTDSPVECMGQEKGEFRE
light chain-HPC4: SIVMTQTPKFLLVSAGDRVTITCKASQSVSNDVAWYQQKPGQSPKLLINYASSRYTGIPDRFTGSGYGTDFTFTISTVQAEDLAVYFCQQDYSSPYTFGGGTKLEIERTVAAPSVFIFPPSDEQLKSGTASVVCLLNNFYPREAKVQWKVDNALQSGNSQESVTEQDSKDSTYSLSSTLTLSKADYEKHKVYACEVTHQGLSSPVTKSFNRGECEDQVDPRLIDGK

These binders were tested against T1, TLT-1 18-188 relipidated in 20:80 PS:PC … (assay: cell-based or functional assay).
B1 was tested, and the “FVII-mediated FXa generation % Activity lipidated TLT-1” value was 9% and the “FVIIa-mediated FXa generation % Activity lipidated TLT-1” value was 29%. With B2 the “FVII-mediated FXa generation % Activity lipidated TLT-1” value was 26% and the “FVIIa-mediated FXa generation % Activity lipidated TLT-1” value was 53%. B3 was tested, and the “FVII-mediated FXa generation % Activity lipidated TLT-1” value was 27% and the “FVIIa-mediated FXa generation % Activity lipidated TLT-1” value was 44%. For B4, the “FVII-mediated FXa generation % Activity lipidated TLT-1” value was 24% and the “FVIIa-mediated FXa generation % Activity lipidated TLT-1” value was 38%. For B5, the “FVII-mediated FXa generation % Activity lipidated TLT-1” value was 25% and the “FVIIa-mediated FXa generation % Activity lipidated TLT-1” value was 40%. For B6, the “FVII-mediated FXa generation % Activity lipidated TLT-1” value was 24% and the “FVIIa-mediated FXa generation % Activity lipidated TLT-1” value was 35%. For B7, the “FVII-mediated FXa generation % Activity lipidated TLT-1” value was 22% and the “FVIIa-mediated FXa generation % Activity lipidated TLT-1” value was 48%.

The binders below were run against T2, TLT-1 receptor on the surface of … (assay: cell-based or functional assay).
In the case of B1, the “FVIIa-mediated FXa generation % Activity activated plts (n 1)” value is reported as 20%. In the case of B2, the “FVII-mediated FXa generation % Activity activated plts (n 1)” value is reported as 14% and the “FVIIa-mediated FXa generation % Activity activated plts (n 1)” value is reported as 45%. B3 was tested, and the “FVII-mediated FXa generation % Activity activated plts (n 1)” value was 20% and the “FVIIa-mediated FXa generation % Activity activated plts (n 1)” value was 45%. B4 was tested, and the “FVII-mediated FXa generation % Activity activated plts (n 1)” value was 14% and the “FVIIa-mediated FXa generation % Activity activated plts (n 1)” value was 32%. With B5 the “FVII-mediated FXa generation % Activity activated plts (n 1)” value was 17% and the “FVIIa-mediated FXa generation % Activity activated plts (n 1)” value was 35%. B6 was tested, and the “FVII-mediated FXa generation % Activity activated plts (n 1)” value was 16% and the “FVIIa-mediated FXa generation % Activity activated plts (n 1)” value was 33%. B7 was tested, and the “FVII-mediated FXa generation % Activity activated plts (n 1)” value was 43% and the “FVIIa-mediated FXa generation % Activity activated plts (n 1)” value was 72%.

From patent US20120178908A1 (Novo Nordisk, published 2012)
